Patent US10456446B2, “Use of human small leucine zipper protein in osteogenesis procedure” (Korea University Research and Business Foundation, priority 2013, dated 2019)

Tests used:
[1] = molecular target: T1, Runx2 (Homo sapiens, UniProt Q13950); test: Runx2 transcriptional activity, luciferase reporter with 6 copies of Runx2 response elements in 293T cells; format: cell-based
T1 construct: expressed in transfected cells; host or cells: 293T
Protocol: Appropriately transfected cells were washed with cold PBS twice, and a reporter lysis buffer (Promega) was used and lysed in a culture dish. Luciferase analysis was performed using a luciferase analysis system (Promega Corporation, Madison, Wis.). A luciferase activity was recorded in Luminometer 20/20^n (Turner BioSystems, Sunnyvale, Calif.) according to instructions of the manufacturer. The luciferase activity was normalized to a β-galactosidase activity. For β-galactosidase analysis, CMV-β-galactosidase was transfected with luciferase reporter genes. All pieces of data were represented as mean±standard deviation of the results from at least three independent experiments.
Therefore, in order to characterize a potential role of sLZIP in the transcriptional activity of Runx2 by inhibiting the transcriptional activity of PPARγ2, the transcriptional activity of Runx2 was examined. For this purpose, 293T cells were temporarily transfected with Runx2 (0.5 μg), β-galactosidase (0.1 μg), 6 copies of Runx2 response elements (0.2 μg) and sLZIP at different contents (0.1 μg to 0.5 μg) (FIG. 7A). PPARγ2 (0.5 μg), β-galactosidase, Runx2, 6 copies of Runx2 response elements and sLZIP (0.5 μg) were expressed in the 293T cells (FIG. 7B). 293T cells were temporarily transfected with HDAC3 (0.5 μg), Runx2, β-galactosidase, 6 copies of Runx2 response elements and sLZIP at different contents (0.25 and 0.5 μg) (FIG. 7C). A promoter activity was measured by luciferase analysis. A luciferase activity was normalized to a β-galactosidase activity and represented as a relative activity (fold change). All experiments were repeated three times and data was represented as mean±standard deviation. A medium of primary MSCs and C3H10T1/2 cells of a human was exchanged with a differentiation medium in which 50 μg/mL of ascorbic acid, 10 mM of β-glycerol phosphate and 10% FBS were contained for 8 days (FIG. 7D). A medium of MEF cells was exchanged with a differentiation medium in which 50 μg/mL of ascorbic acid, 10 mM of β-glycerol phosphate and 10% FBS were contained for 8 days. […]

[2] = molecular target: T2, HDAC3 (Homo sapiens, UniProt O15379); test: GST pull-down of sLZIP with HDAC3 in 293T cells; format: binding
T2 construct: expressed in transfected cells; host or cells: 293T
T2 sequence (O15379 whole entry, species assumed): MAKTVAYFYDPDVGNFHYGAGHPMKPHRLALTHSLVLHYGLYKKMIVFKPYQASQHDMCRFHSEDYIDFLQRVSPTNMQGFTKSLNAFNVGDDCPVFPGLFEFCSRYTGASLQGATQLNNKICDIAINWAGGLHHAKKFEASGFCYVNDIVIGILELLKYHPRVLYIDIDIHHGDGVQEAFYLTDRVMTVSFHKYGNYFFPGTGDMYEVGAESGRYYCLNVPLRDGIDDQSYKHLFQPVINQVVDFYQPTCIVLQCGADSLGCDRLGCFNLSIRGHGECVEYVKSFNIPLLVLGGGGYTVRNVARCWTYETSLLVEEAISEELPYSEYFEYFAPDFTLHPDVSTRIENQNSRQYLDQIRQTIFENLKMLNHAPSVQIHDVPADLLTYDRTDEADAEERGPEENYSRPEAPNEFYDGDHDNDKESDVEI
Protocol: 293T cells were obtained and washed with cold PBS. The cells were re-suspended in an IP lysis buffer [25 mM of Tris-HCl (pH 7.4), 150 mM of NaCl, 1 mM of EDTA, 1% NP-40 and 5% glycerol, and a protease inhibitor]. A suspension was centrifuged at 16,000×g for 20 minutes at 4° C. Supernatants were collected and incubated with 0.5 μg of appropriate antibodies and 25 μl of protein A/G-agarose or a GST Sepharose 4B bead for 24 hours at 4° C. A protein complex was centrifuged at 1,000×g with a cold IP lysis buffer for 1 minute and washed five times. The final pellet was re-suspended in 50 μl of an SDS-sample buffer containing 5% β-mercaptoethanol and heated for 10 minutes at 100° C. A protein sample was isolated in SDS-PAGE (8 to 10%) and transferred to nitrocellulose membranes. Co-precipitated proteins were detected according to western blotting using specific antibodies.
For this purpose, 293T cells were transiently transfected with PPARγ2 (0.5 μg), β-galactosidase (0.1 μg), FABP4-Luc reporter genes (0.2 μg) and sLZIP (0.1 μg). […] A promoter activity was measured according to luciferase analysis. […] After the transfection, the cells were stimulated with or without 10 nM of RZD, and a promoter activity was measured (FIG. 4B). […] GFP-sLZIP expression constructs were expressed in C3H10T1/2 cells, rabbit anti-HDAC3 antibodies and Texas Red-labeled anti-rabbit antibodies were used and analysis was performed under a fluorescence microscope. […] A protein complex was analyzed in SDS-PAGE, and anti-GST and anti-Flag antibodies were used for immunoblotting (FIG. 4E). *, P<0.05; **, P<0.01
For this purpose, 293T cells were transfected with GST-PPARγ2 and Flag-sLZIP and were treated or not treated with 10 nM of RZD for 24 hours. […] A protein complex was analyzed in SDS-PAGE, and immunoblotted with anti-GST and anti-Flag antibodies. […] The cell lysates were GST pull-down analyzed (FIG. 5C). […] The cell lysates were GST pull-down analyzed (FIG. 5D). […] A protein complex was analyzed in SDS-PAGE, and then immunoblotted with anti-NCoR1 and anti-Flag antibodies (FIG. 5E). […]

[3] = Solubility in saline or buffer solution; format: physicochemical

T1 sequence (Q13950 whole entry, species assumed): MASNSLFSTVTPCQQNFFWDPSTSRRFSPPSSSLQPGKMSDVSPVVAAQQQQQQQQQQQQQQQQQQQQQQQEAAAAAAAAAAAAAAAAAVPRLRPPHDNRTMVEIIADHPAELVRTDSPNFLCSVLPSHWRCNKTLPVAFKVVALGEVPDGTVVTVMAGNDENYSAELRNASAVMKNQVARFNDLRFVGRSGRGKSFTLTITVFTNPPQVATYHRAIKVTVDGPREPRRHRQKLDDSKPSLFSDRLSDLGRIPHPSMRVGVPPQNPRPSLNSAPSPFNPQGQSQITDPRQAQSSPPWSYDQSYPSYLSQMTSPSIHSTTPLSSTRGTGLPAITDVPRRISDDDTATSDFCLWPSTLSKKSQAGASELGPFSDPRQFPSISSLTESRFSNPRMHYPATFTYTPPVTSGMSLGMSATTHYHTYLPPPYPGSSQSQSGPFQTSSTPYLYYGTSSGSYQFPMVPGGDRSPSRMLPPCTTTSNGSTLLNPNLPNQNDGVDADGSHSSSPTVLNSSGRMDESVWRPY

transcriptional activity of Runx2 ([1]; PPARγ2 0.5 μg co-expressed, sLZIP 0.5 μg): restored the activity of Runx2 | increase of the transcriptional activity of Runx2 (factor) ([1]; sLZIP 0.1 μg to 0.5 μg): about 4 | interaction with HDAC3 ([2]; 10 nM RZD for 24 hours): remained as being interacted with sLZIP | interaction with HDAC3 ([2]; GST-HDAC3 and Flag-sLZIP, 293T cells, GST pull-down): interacted with HDAC3 | interaction with HDAC3 in a PPARγ2 corepressor complex ([2]; no RZD treated): interacted with HDAC3
B1: sLZIP: human small leucine-zipper protein, isoform of LZIP, 354 amino acids, no transmembrane domain, GenBank FJ263669, SEQ ID NO: 1 (protein, listed as Homo sapiens)
chain: MELELDAGDQDLLAFLLEESGDLGTAPDEAVRAPLDWALPLSEVPSDWEVDDLLCSLLSPPASLNILSSSNPCLVHHDHTYSLPRETVSMDLESESCRKEGTQMTPQHMEELAEQEIARLVLTDEEKSLLEKEGLILPETLPLTKTEEQILKRVRRKIRNKRSAQESRRKKKVYVGGLESRVLKYTAQNMELQNKVQLLEEQNLSLLDQLRKLQAMVIEISNKTSSSSMYSSDTRGSLPAEHGVLSRQLRALPSEDPYQLELPALQSEVPKDSTHQWLDGSDCVLQAPGNTSCLLHYMPQAPSAEPPLEWPFPDLFSEPLCRGPILPLQANLTRKGGWLPTGSPSVILQDRYSG
transcriptional activity of Runx2 ([1]; HDAC3 0.5 μg co-expressed, sLZIP 0.25 and 0.5 μg): restored the transcriptional activity of Runx2 | solubility [3]: very soluble
